Test system: K4 kissing-loop RNA reporter
Assay: apparent KD of K4 kissing-loop reporter; higher = weaker reporter binding
Conditions: Eterna round: R107
Experimental: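 RNA-MaP round R107: designed RNA switches with theophylline, tryptophan, arginine or FMN aptamers are transcribed on-chip within common flanks. They are titrated with a labelled K4 kissing-loop RNA reporter in RNA-MaP buffer (100 mM Tris pH 7.5, 80 mM KCl, 4 mM MgCl2), without ligand or with the indicated ligand. Median apparent KD per design.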

[1] = input ligand: theophylline 20 uM
[2] = input ligand: tryptophan 2.4 mM
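Also: bound reporter read as fluorescence of individual clusters on recovered sequencing chips by microscopy, with normalized cluster intensities fitted with a binding model.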

Row | Sequence | apparent KD of K4 kissing-loop reporter (input ligand: FMN 200 uM) [nM] | apparent KD of K4 kissing-loop reporter (input ligand: arginine 13.2 mM) [nM] | apparent KD of K4 kissing-loop reporter (input ligand: none) [nM] | apparent KD of K4 kissing-loop reporter [1] [nM] | apparent KD of K4 kissing-loop reporter [2] [nM]
1 | UUUCGGUUCUGAGGAUAUUCGGACAAAUAUAGUGAUGUUGUAUAAGGAGGAGGGUGUUGGCAGUGCGGAGAAGGCAGACCAGGAU [ExFMNB.W] | 853 | 557 | 1170 | 878 | 546
2 | UUUAACGAGUGAUGUUCGUAAAGUAAUAGUUAGGAUAUCGUUUUUUCGAGAAGGAACUUCGAAGUGAUACGAAAGUAUCGCUUCG [FMN A 8] | 136 | 192 | 192 | 205 | 152
3 | UGACUACAAGGAAAAUAAUCCUAGUGAUGUUAGGAUAUGCUGAUAAGCAGAAGGAACUGAGAUCGAAAGAUCUCAAAUGUAGUCU [FmnAX 27 Mat Inspired #SwitchBubble #StaticStem #K4Early] | 121 | 92 | 87.2 | 102 | 93.5
4 | UCCUAGGCUCGAAAGAGCCUAGGAUAUACUCAGGAUAUCCGGAAACGGAGAAGGGAGUAACUAGUGAUGUUAGGGAUUCCCUAUU | 260 | 96 | 109 | 98.7 | 96.5
5 | UUUAGGAGUGGUGUUGAUUAGGGAGCGGAAGGAGCGCCGAGGAAGGCAGGUAGGUCGCCGGAUUAUAGUGAUGUUAUGAAGAGGG [ExArg.M] | 875 | 723 | 792 | 912 | 654
6 | AUGUUGAGCGGAAGGAGCGGCUGAACCAGUGAUGUUGGUUAAUCCAAGUGAUGUUGGAAAAGCCAGGUAGGUCGCCGCUUUAUGU [Same State Arg B GF 2] | 821 | 534 | 902 | 896 | 722
7 | AAAAUAACCCAGUGAUGUUGGUAUACAGAUACCAGCGACGAAAGUCGCCCUUGGCAGCUGUGGACGUACAAAAUAAGUACGUCCU | 986 | 705 | 1120 | 902 | 1010
8 | CGGCCGUUAUGAGAUACCAGAGUGGCGACCAGUGAUGUUGGUCGACGCUUGCGGUCGUCUCUCCCUUGGCAGCUUAGUACGAAAG [Inisar] | 97.4 | 88.2 | 91.8 | 73.8 | 91.3
9 | GGGCAUGAUACGAUAAAAUAGUGGAGAGAUACCAGCGUUUUAGAUCGCCCUUGGCAGCUCUCGAGUGAUGUUCGGGUAGCUCUGA [Onedra] | 101 | 98.5 | 115 | 114 | 104
10 | UGAUACCAGACGGCCGCCACUGCACCAGUCAAUGACUGAGUGCGGUAGUGCUCAGUGAUGUUGAGUAGGACCGGGUCUGGUAUCU [Mod of Eli's TrypBX 8 v3] | 148 | 124 | 131 | 130 | 130
11 | AAUAUGAAGCAGUGAUGUUGCUUAUGAGAAGGAGCGCACGAAAGUGCAGGUAGGUCGCUCAGCCAAGUGGACGAAAACGUCCACA [whbob_SS_Arginine_A_sa107] | 98.3 | 99.9 | 86.6 | 87.2 | 91
12 | GUUACGCAUGGAAGGAGCGCGAAUUUAAUUAGUGAGUGAUGUUCACAUAAAAUAUAUAAUACGCAGGUAGGUCGCCAUGUGUAAC [Ex Arginine B K4 1] | 80.8 | 83.1 | 79.3 | 82.8 | 75
13 | UCUGGAGUAUAUGAUACCAGCAGUGAGAGACAGGAAGUAUAGUGAUGUUAUAUGAGAGAAUGCCCUUGGCAGCGUGUGCGGUGGC [SSTheophylB.Q] | 118 | 77.8 | 61.6 | 81.4 | 58.3
14 | AAAAUAAACCAGUGAUGUUGGUAUCCAGAUACCAGCGACGAAAGUCGCCCUUGGCAGCUGUGGACGUACAAAAUAAGUACGUCCU | 930 | 619 | 894 | 746 | 714
15 | GCUGCCAUGGCAGGAUAUAUAAAUGCUGAGUGAUGUUCUGCAUCAUAUGUCCCUGACCGCGGCGGUGUAGAAGGGCCAUGGCAGC | 135 | 93 | 107 | 97.1 | 103
16 | AGCGCCUAAGCCGAUACCAGAAACGCGGUGCGUCGCACGAUUAACUAGGAAAGUGAUGUUUUCCCUUGGCAGCGGGACCUGUGAG [theeternabot_exclusion_KL_Theo_B_11] | 119 | 116 | 134 | 133 | 135
17 | GGAUCCACCAGUGAUGUUGGAGAAAACUCUAAGGAUAUGACGAAAGUCAGAAGGUGGUAGACUGGACAAAGUCCGGUAGGAUCCA [FmnA10 U30+A78] | 682 | 201 | 617 | 216 | 250

Row | Sequence | apparent KD of K4 kissing-loop reporter (input ligand: FMN 200 uM) [nM] | apparent KD of K4 kissing-loop reporter (input ligand: arginine 13.2 mM) [nM] | apparent KD of K4 kissing-loop reporter (input ligand: none) [nM] | apparent KD of K4 kissing-loop reporter [1] [nM] | apparent KD of K4 kissing-loop reporter [2] [nM]
18 | GGAUAGGACAGAGGAUAUGGUAGUGAUGUUACCAAACUGGUUAUCAAUGUUAGAAAAUUGACAAAACCAGAAGGCUGUCCUAUCG [KL-XFMN-B15] | 129 | 65.6 | 67.8 | 59.2 | 66.6
19 | UUUUUCCCGCAGGAUACCAGCAACCAAACGUCAUGCGAAGUGAUGUUUCGCUUACGGUAGUGCCCUUGGCAGCCUUCGGUAGGGU [thingy] | 196 | 161 | 183 | 119 | 161
20 | UUACCAAGUGAUGUUUGGAAAUAUCCUAGGCAGGAUAUGCGGAAACGCAGAAGGGCCACCUUCUAGUGAAGGAAACUUCGCUAUU [Ex FMN A 3] | 288 | 199 | 272 | 246 | 263
21 | CGGCUCUAUCCUAGUAUUAAGAGGGAGUUGCGAGGACCGGUACGGCCGCCACUCGAAGUAGUUUGGCCAGUGAUGUUGGUCUUAC [Qubeatonza] | 223 | 213 | 129 | 152 | 421
22 | GCAGUGAUGUUGCAAAAUGUCUGUGGUAGUCGAGGACCGGUACGGCCGCCACUCGGUGAGAACCUGCUAAUACAUCGAUAAGUGA [IX] | 706 | 580 | 627 | 810 | 666
23 | UAUUAAUUGUCAGGAUAUCGUAAUCGAGUGAUGUUCGAAUAUCGACGAUAGUCGAUAUUAUUUAUACGAGAAGGGACAUUAUUUA [JR_SSFMNB_Sub004] | 366 | 298 | 417 | 321 | 332
24 | UGAGGGAUCUCGGCCGCCACUCGUGGGAAAUGGGCCUCAGGGAUAUAGUGAUGUUAUGUAAAGAAGAGGACCGGGAGAAGGAAGG [ExTryptoB.Dh] | 230 | 229 | 320 | 386 | 203
25 | GGCAUGGUGACGCGGCUGCCAUACGCUUGGGAGGAUAUGUUUCGUGACAGAAGGCCCAGUGAUGUUGGGUCUGUUCAAAAGGACU [Arisus] | 659 | 160 | 170 | 169 | 150
26 | AGACUACCACACUGUCAAUAGACAGUGAGGUAGGAUAUGCUGAAAAGCAGAAGGACCAGUGAUGUUGGUAGGUAGUCAAAAUAAA [FmnAX 11 #SwitchBubble #StaticStem #K4Early] | 185 | 112 | 84.8 | 128 | 74.9
27 | CACCCUAGUUCAGAUACCAGACUAGAGACAGUGAUGUUGUCACAUCCUAAAUUGGGUGUAGUCCCUUGGCAGCUGAGUAAUCUGC [Theo B/Ex/SS double] | 600 | 635 | 724 | 596 | 540
28 | AGUACAAUUGCGGCCGCCACUCAACGCAGAUCAAAGAUCUGCAUUCACUCAGUGAUGUUGAGUGAGAGGACCGGGCAUUUGUACA [Omei KL Tryp B SS B v2] | 676 | 481 | 548 | 512 | 164
29 | UAAGAAUAAGAUGCAGUGAUGUUGCAUCUACGAGGACCGGUACGGCCGCCACUCGAGGUCCUCGAACUGCAUCAGAGGACAAUAA [(H,1)-(H,2)-(Trp1)-(Trp2)-(T)'-(H)'-(T)''] | 253 | 184 | 286 | 390 | 300
30 | CGAGUCCUGAGGAGUGAUGUUCCUCGGCCACGAGGACCGGUACGGCCGCCACUCGUUACUCGGGCUUAGUGGCUAGCACUAAGCU [Tirete] | 200 | 249 | 203 | 238 | 118
31 | UGAUACCAGACUGAUACCAGCUAGUGAUGUUAGCUGAAAUCAGGGUCAAAGACCCUGUCUAGCCCUUGGCAGCAGUCUGGUAUCU [TheoBX 9 #SwitchBubble #StaticStem] | 107 | 93.8 | 98.3 | 133 | 91.5
32 | CGACUAGUCUUGCAACCCUAGUCGAUAUGCUAGGAUAUCAGGAAACUGAGAAGGAGUUUACUUGCAGUGAUGUUGCAAGAAUAAU [KL-SSFMN-A10] | 135 | 153 | 133 | 172 | 129
33 | CACGUUUACCAAGGAUAUGGUCUGCCGCGGAACCGUUCAAGUGAUGUUUGAUUCGAGUAUUAAUCUCCAGAAGGUGGUAGUACAG [theeternabot_exclusion_KL_FMN_B_6] | 247 | 353 | 417 | 476 | 342

From the supplement of paper PMC9170038
